Reference: paper PMC9402891, “Case report: Biochemical and clinical phenotypes caused by cysteine substitutions in the epidermal growth factor-like domains of fibrillin-1” (Frontiers in Genetics, 2022)

T1: latent transforming growth factor beta-binding protein 1 fragment LTBP1^1141-1395 (LTBP1^cbEGF14cbEGF15) (human, UniProt Q14766-2 1141-1395)
T1 construct: LTBP1, residues 1141-1395: cbEGF14, TB3, EGF3 and cbEGF15 domains (the C-terminal region); the domains named are the C-terminal ones, which fits the short isoform; also called LTBP1 polypeptides
T1 sequence (looked up): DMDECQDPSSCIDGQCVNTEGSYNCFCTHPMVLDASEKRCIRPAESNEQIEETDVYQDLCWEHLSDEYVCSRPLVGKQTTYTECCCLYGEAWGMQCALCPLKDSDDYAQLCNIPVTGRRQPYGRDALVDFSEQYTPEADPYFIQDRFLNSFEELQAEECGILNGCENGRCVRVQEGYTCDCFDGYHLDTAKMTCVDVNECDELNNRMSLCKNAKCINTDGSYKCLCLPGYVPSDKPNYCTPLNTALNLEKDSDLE

B1: human fibrillin-1 fragment FBN1^113-287+C160Y (FBN1^E2cbEGF1+C160Y) (domain or fragment)
chain: not shown
notes: fibrillin-1, human, residues 113-287 (EGF2, EGF3, Hyb1 and cbEGF1 domains) with the patient mutation C160Y (c.479G>A) in EGF3; also called mutant recombinant fibrillin-1 polypeptides
B2: human fibrillin-1 fragment FBN1^113-287 (FBN1^E2cbEGF1), wild type (domain or fragment)
chain: not shown
notes: fibrillin-1, human, residues 113-287: EGF2, EGF3, Hyb1 and cbEGF1 domains; one of them ends in L288, which may be a residue from the vector; also called wild-type fibrillin-1 polypeptides

Molecular target: T1, latent transforming growth factor …
Assay: SPR; immobilised partner not stated; running buffer 10 mM HEPES, 150 mM NaCl, 2 mM CaCl2, pH 7.4, 0.005% (v/v) Tween-20; regeneration 50 mM HCl; Biacore T200 (ProteOn system also named)
Details: both partners purified

Row | Binder | Kd [nM]
1 | B1 | 1230
2 | B2 | 1530
